Test results: patent publication US20210040221A1 (published 2021)
Changes are numbered by the printed parent chain. Where two headings read alike, the source gives them in different places.

Key:
[1] = target: T1, recombinant human CD25 his tagged (UniProt P01589 22-213); experiment: SPR (Biacore 2000)
T1 chain: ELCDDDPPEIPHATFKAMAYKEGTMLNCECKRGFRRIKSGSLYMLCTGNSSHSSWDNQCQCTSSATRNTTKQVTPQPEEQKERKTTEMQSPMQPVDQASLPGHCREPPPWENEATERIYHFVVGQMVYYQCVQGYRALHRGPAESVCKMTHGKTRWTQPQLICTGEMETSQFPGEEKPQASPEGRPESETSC

[2] = target: T1, recombinant human CD25 his tagged; experiment: SPR (Biacore 2000)

B1: Antibody 3 (antibody, V domains shown)
VH: EVQLLESGGGLVQPGGSLRLSCAASGFTFSSYGMSWVRQAPGKGLELVSTINGYGDTTYYPDSVKGRFTISRDNAKNTLYLQMNSLRAEDTAVYFCARDRDYGNSYYYALDYWGQGTLVTVSS
VL: EIVLTQSPGTLSLSPGERATLSCRASSSVSFMHWLQQKPGQAPRPLIYATSNLASGIPDRFSGSGSGTDYTLTISRLEPEDFAVYYCQQWSSNPPAFGQGTKLEIK
With B1 as the binder, how does the Kd [1] read?
Its Kd is 6.1 nM.

B2: Antibody 1 (antibody, V domains shown)
VH: B1 VH with A75S, F95Y
VL: B1 VL
For B2, which Kd [2] is on record?
The Kd was 4.7 nM.

B3: Antibody 4 (antibody, V domains shown)
VH: B1 VH
VL: B1 VL with E1Q, A42S
Which Kd [1] does the source give for B3 here?
The Kd was 5.5 nM.

B4: Antibody 2 (antibody, V domains shown)
VH: B1 VH with A75S, F95Y
VL: B1 VL with E1Q, A42S
For B4, which Kd [2] is on record?
Its Kd is 6.1 nM.
